We go through eight molecules from patent US12102653B2, “Ligand regulated protein-protein interaction system” (ST. ANNA KINDERKREBSFORSCHUNG, priority 2017, dated 2024).

Data set [1] deals with T1, RBP4 (Homo sapiens, UniProt P02753). The conditions noted are these: ligand-induced conformational changes of human RBP4; cited from earlier work.
Data set [2] concerns the target T1, RBP4. Briefly: Isothermal titration calorimetry (ITC) of binder-RBP4 interaction. The format is binding. Also on record: Human His-tagged RBP4 (residues 19-201) in pPICZ-alpha-A vector; made in house; host or cells: Pichia pastoris KM71H (secreted). The conditions noted are these: presence (50 μM) and absence of A1120. How it is done: For the thermodynamic characterization of the interaction between RBP4 and rcSso7d- or FN3-based lipocalin-fold binding interaction partners, isothermal titration calorimetry (ITC) is conducted using an automated MicroCal PEAQ-ITC instrument (Malvern Instruments). The samples are centrifuged (17,000 g, 10 min, 20° C.) and filtered (0.1 μm Ultrafree-MC filter, Merck Millipore). RBP4 protein solution is applied to the sample cell and the respective binders are titrated with varying intervals. Different concentrations both for RBP4 and binders are used and in some experiments, binders are applied to the sample cell and RBP4 is titrated. The experiments are performed both in the presence and absence of the ligand A1120 or other ligands. Data analysis is performed with the MicroCal PEAQ-ITC analysis software.
For the thermodynamic characterization of the interaction between RBP4 and rcSso7d- or FN3-based lipocalin-fold binding interaction partners (in this case RBP4 binding interaction partners), isothermal titration calorimetry (ITC) was conducted using the PEAQ Isothermal Titration Calorimeter Automated (Malvern Panalytical). The samples were centrifuged (17000 g, 10 min, 20° C.) and dialysed against the same buffer (PBS). RBP4 protein solution was applied to the sample cell and the respective RBP4 binding interaction partners were titrated with varying intervals. Different concentrations both for RBP4 and RBP4 binding interaction partners were used. […] Data analysis was performed with the MicroCal PEAQ-ITC analysis software and the resulting data were fitted to a one-set-of-sites binding model. […] The signature plots show the thermodynamic parameters of the interaction between RBP4 and RS3. One representative experiment out of four independent experiments is shown. […] The integrated data were fitted to one-set-of-sites binding model to calculate the KD values in FIG. 18. Signature plots show the thermodynamic parameters of the interaction. One representative experiment out of four independent experiments is shown.

Data set [3] has as its target T1, RBP4. Briefly: Surface plasmon resonance (SPR), RBP4 immobilized on chip. The format is binding. Also on record: Human His-tagged RBP4 (residues 19-201) in pPICZ-alpha-A vector; made in house; host or cells: Pichia pastoris KM71H (secreted). As to conditions: for dependence of affinity to RBP4 on the lipocalin-fold ligand A1120: SPR, presence (5 μM) and absence of A1120. How it is done:
Surface plasmon resonance (SPR) is used to determine the affinity of the interaction between RBP4 and rcSso7d- or FN3-based lipocalin-fold binding interaction partners and is performed with BiacoreT200 (GE healthcare). The antigen (RBP4) is coated onto a chip and incubated with various concentrations of binder solution in PBS, followed by a dissociation phase in PBS only. All measurements are performed both in the presence and absence of A1120 or other ligands. Finally, kon, koff and Kd values are obtained by global fitting.
Surface plasmon resonance (SPR) was used to determine the affinity of the interaction between RBP4 and rcSso7d- or FN3-based lipocalin-fold binding interaction partners and was performed with BiacoreT200 (GE Healthcare). The antigen (RBP4) was coated onto a CM5 chip (GE Healthcare) and incubated with various concentrations of lipocalin-fold binding interaction partner solution in HBS-EP (GE Healthcare), followed by a dissociation phase in HBS-EP. […] Finally, Kd values (dissociation constants) were obtained by steady-state analysis. […] KD values were calculated by steady-state analysis (right diagram in A and C). One representative experiment out of four independent experiments is shown.

A short description of data set [4]: Analytical size exclusion chromatography (SEC) of RBP4 binding interaction partners. The class given is physicochemical. As to conditions: PBS with 200 mM NaCl, 25° C. How it is done: For analytical SEC analysis, a total amount of 25 μg rcSso7d or FN3 mutants in running buffer (PBS with 200 mM NaCl) is filtered through 0.1 μm Ultrafree-MC filter (Merck Millipore), applied to a Superdex 200 10/300 GL column (GE healthcare) connected to an HPLC prominence LC20 system (Shimadzu) and eluted with a flow rate of 0.75 mL/min at 25° C. In addition, multi-angle light scattering (MALS) is used for determining the molecular mass using WYATT Heleos Dawn8+ plus QELS, a refractive index detector RID-10A (Shimadzu) and a diode array detector SPD-M20A (Shimadzu).
For analytical SEC analysis, a total amount of 25 μg of RBP4 binding interaction partners in running buffer (PBS with 200 mM NaCl) was filtered through a 0.1 μm Ultrafree-MC filter (Merck Millipore), applied to a Superdex 200 10/300 GL column (GE healthcare) connected to an HPLC Prominence LC20 system (Shimadzu) and eluted with a flow rate of 0.75 mL/min at 25° C.
(In general: SEC sorts molecules by how far they enter the pores of the column.)

Data set [5] is described as follows: Differential scanning calorimetry (DSC) of RBP4 binding interaction partners. As to conditions: 80 μM protein, 20-110° C.
Method: The stability of RBP4-binding interaction partners is evaluated by determining the melting temperature (Tm) by differential scanning calorimetry (DSC) using MicroCal VP-DSC capillary cell microcalorimeter (MicroCal). Briefly, 30 μM protein solution is exposed to an increasing temperature ranging from 20-110° C. with a heating rate of 1° C./min. Buffer baseline is subtracted and the resulting data are normalized for protein concentration, followed by fitting with a non-two-state thermal unfolding model.
The thermal stability of RBP4 binding interaction partners was evaluated by determining the melting temperature (Tm) by differential scanning calorimetry (DSC) using the PEAQ Differential Scanning Calorimeter Automated (Malvern Panalytical). Briefly, 80 μM protein solution was exposed to an increasing temperature ranging from 20-110° C. with a heating rate of 1° C./min. Buffer baseline was subtracted and the resulting data were normalized for protein concentration, followed by fitting with a non-two-state thermal unfolding model.

`CC1=C(/C=C/C(C)=C/C=C/C(C)=C/C(=O)O)C(C)(C)CCC1` [all-trans retinoic acid]: the “effect of ligand on the RBP4-TTR interaction” value (“effect of ligand” below) on RBP4 [1] is reported as “dissociation from TTR”.

For `CCNC(=O)/C=C(C)/C=C/C=C(C)/C=C/C1=C(C)CCCC1(C)C` [N-Ethylretinamide], the “effect of ligand” value on RBP4 [1] is “dissociation from TTR”.

In the case of `C/C=C(C)/C=C/C=C(C)/C=C/C1=C(C)CCCC1(C)C` [axerophthene], at RBP4 [1], the “effect of ligand” value is “dissociation from TTR”.

`CC(=O)OC/C=C(C)/C=C/C=C(C)/C=C/C1=C(C)CCCC1(C)C` [retinyl acetate]: the “effect of ligand” value on RBP4 [1] is given as “dissociation from TTR”.

On to `CC1=C(/C=C/C(C)=C/C=C/C(C)=C/C(=O)Nc2ccc(O)cc2)C(C)(C)CCC1` [Fenretinide, 15-[(4-hydroxyphenyl)amino]retinal], for which, on RBP4 [1], the “effect of ligand” value is on record as “dissociation from TTR”.

B1: RS5: rcSso7d-based lipocalin-fold binding interaction partner binding RBP4 in an A1120-dependent manner (protein)
chain: ATVKFTYQGEEKQVDISKIKRVARYGQGIYFDYGEGGGAWGYGSVSEEDAPKELLQMLEKQ
As to B1, the “dependence of affinity to RBP4 on the lipocalin-fold ligand A1120” value in the data set with RBP4 [2] and with RBP4 [3] was “strongly depend on the presence of the lipocalin-fold ligand” each time. Further, in data set [4], the “folding and oligomeric state (SEC analysis)” value (from here on “folding and oligomeric state”) is on record as “well folded, monomeric proteins”. In data set [5], the “thermal stability (DSC analysis)” value was “stable proteins”.

B2: RF2: FN3-based lipocalin-fold binding interaction partner binding RBP4 in an A1120-dependent manner (protein)
chain: VSDVPRDLEVVAATPTSLLISWYYPNASHAGYYRITYGETGGNSPVQEFTVPFSIRYTIATISGLKPGVDYTITVYAVTDYAYYYRLSEPISINYRTEIDKPSQ
For B2, the “dependence of affinity to RBP4 on the lipocalin-fold ligand A1120” value with RBP4 [2] and with RBP4 [3] was “strongly depend on the presence of the lipocalin-fold ligand” throughout. Moreover, the “folding and oligomeric state” value in data set [4] was “well folded, monomeric proteins”.

B3: RS3: rcSso7d-based lipocalin-fold binding interaction partner binding RBP4 in an A1120-dependent manner (protein)
chain: ATVKLTYQGEEKQVDISKIKRVARYGQNIYFSYDEGGGAYDYGAVSEKDAPKELLQMLEKQ
B3: the “dependence of affinity to RBP4 on the lipocalin-fold ligand A1120” value with RBP4 [2] and with RBP4 [3] was “strongly depend on the presence of the lipocalin-fold ligand” in each case. Also, the “SPR binding signal to RBP4” value with RBP4 [3] (absence of A1120, same RS3 concentrations as used with 5 μM A1120) is “almost no signal”. For the same molecule, in data set [4], the “folding and oligomeric state” value is “well folded, monomeric proteins”. The “thermal stability (DSC analysis)” value in data set [5] was “stable proteins”.
